Test results: patent US20230203469A1
One block for each molecule: values may come before it.

How the values were obtained:
FRETS-VWF73 substrate = FRETS-VWF73 substrate (UniProt P04275); assay: cell-based or functional assay
[1] = target: recombinant VWF (full-length, multimeric rVWF) (UniProt P04275); assay: cell-based or functional assay
[2] = target: von Willebrand factor (VWF), substrate of the in vitro cleavage of Table 1 (UniProt P04275); assay: cell-based or functional assay
[3] = target: T1, FRETS-VWF73 substrate, P04275
T1 chain: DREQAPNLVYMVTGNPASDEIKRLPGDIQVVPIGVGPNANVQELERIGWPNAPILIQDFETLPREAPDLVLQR

[4] = target: recombinant VWF (full-length, multimeric rVWF), P04275

specific activity U/mg (UV); Sample 1, 59 % Q97R (FRETS-VWF73 substrate): 1640 U/mg (UV)
specific activity U/mg (UV); Sample 2, 64 % Q97R (FRETS-VWF73 substrate): 1580 U/mg (UV)
specific activity U/mg (UV); Sample 3, 59 % Q97R (FRETS-VWF73 substrate): 1400 U/mg (UV)
specific activity U/mg (UV); Sample 4, 56 % Q97R (FRETS-VWF73 substrate): 1460 U/mg (UV)
specific activity U/mg (UV); Sample 5, 55 % Q97R (FRETS-VWF73 substrate): 1360 U/mg (UV)
specific activity U/mg (UV); Sample 6, 64 % Q97R (FRETS-VWF73 substrate): 1470 U/mg (UV)
specific activity U/mg (UV); Sample 7, 66 % Q97R (FRETS-VWF73 substrate): 2040 U/mg (UV)
specific activity U/mg (UV); Sample 8, 70 % Q97R (FRETS-VWF73 substrate): 1610 U/mg (UV)
specific activity U/mg (UV); Sample 9, 67 % Q97R (FRETS-VWF73 substrate): 1480 U/mg (UV)
specific activity U/mg (UV); Sample 10, 67 % Q97R (FRETS-VWF73 substrate): 1450 U/mg (UV)
specific activity U/mg (UV); Sample 11, 60 % Q97R (FRETS-VWF73 substrate): 1580 U/mg (UV)
specific activity U/mg (UV); Sample 12, 60 % Q97R (FRETS-VWF73 substrate): 1620 U/mg (UV)
specific activity U/mg (UV); Sample 13, 71 % Q97R (FRETS-VWF73 substrate): 1970 U/mg (UV)
specific activity U/mg (UV); Sample 14, 59 % Q97R (FRETS-VWF73 substrate): 1390 U/mg (UV)
specific activity U/mg (UV); Sample 15, 52 % Q97R (FRETS-VWF73 substrate): 1330 U/mg (UV)
specific activity U/mg (UV); Sample 16, 57 % Q97R (FRETS-VWF73 substrate): 1410 U/mg (UV)
specific activity U/mg (UV); Sample 17, 61 % Q97R (FRETS-VWF73 substrate): 1380 U/mg (UV)
specific activity U/mg (UV); Sample 18, 63 % Q97R (FRETS-VWF73 substrate): 1440 U/mg (UV)
specific activity U/mg (UV); Sample 19, 54 % Q97R (FRETS-VWF73 substrate): 1660 U/mg (UV)
specific activity U/mg (UV); Sample 20, 64 % Q97R (FRETS-VWF73 substrate): 1700 U/mg (UV)
specific activity U/mg (UV); Sample 21, 64 % Q97R (FRETS-VWF73 substrate): 1690 U/mg (UV)
specific activity U/mg (UV); Sample 22, 66 % Q97R (FRETS-VWF73 substrate): 1620 U/mg (UV)
specific activity U/mg (UV); Sample 23, 61 % Q97R (FRETS-VWF73 substrate): 1540 U/mg (UV)
specific activity U/mg (UV); Sample 24, 62 % Q97R (FRETS-VWF73 substrate): 1510 U/mg (UV)
specific activity U/mg (UV); Sample 25, 61 % Q97R (FRETS-VWF73 substrate): 1530 U/mg (UV)
specific activity U/mg (UV); Sample 26, 61 % Q97R (FRETS-VWF73 substrate): 1760 U/mg (UV)
specific activity U/mg (UV); Sample 27, 59 % Q97R (FRETS-VWF73 substrate): 1860 U/mg (UV)
specific activity U/mg (UV); Sample 28, 60 % Q97R (FRETS-VWF73 substrate): 1750 U/mg (UV)
specific activity U/mg (UV); Sample 29, 55 % Q97R (FRETS-VWF73 substrate): 1730 U/mg (UV)
specific activity U/mg (UV); Sample 30, 60 % Q97R (FRETS-VWF73 substrate): 1850 U/mg (UV)
specific activity U/mg (UV); Sample 31, 64 % Q97R (FRETS-VWF73 substrate): 1800 U/mg (UV)
specific activity U/mg (UV); Sample 32, 60 % Q97R (FRETS-VWF73 substrate): 1750 U/mg (UV)
specific activity U/mg (UV); Sample 33, 65 % Q97R (FRETS-VWF73 substrate): 1620 U/mg (UV)
specific activity U/mg (UV); Sample 34, 61 % Q97R (FRETS-VWF73 substrate): 1720 U/mg (UV)
specific activity U/mg (UV); Sample 35, 72 % Q97R (FRETS-VWF73 substrate): 1650 U/mg (UV)
cleavage of multimeric rVWF [%]; Sample 1, 59 % Q97R [1]: 58%
cleavage of multimeric rVWF [%]; Sample 2, 64 % Q97R [1]: 52%
cleavage of multimeric rVWF [%]; Sample 3, 59 % Q97R [1]: 51%
cleavage of multimeric rVWF [%]; Sample 4, 56 % Q97R [1]: 60%
cleavage of multimeric rVWF [%]; Sample 5, 55 % Q97R [1]: 52%
cleavage of multimeric rVWF [%]; Sample 6, 64 % Q97R [1]: 57%
cleavage of multimeric rVWF [%]; Sample 7, 66 % Q97R [1]: 62%
cleavage of multimeric rVWF [%]; Sample 9, 67 % Q97R [1]: 62%
cleavage of multimeric rVWF [%]; Sample 10, 67 % Q97R [1]: 60%
cleavage of multimeric rVWF [%]; Sample 11, 60 % Q97R [1]: 61%
cleavage of multimeric rVWF [%]; Sample 12, 60 % Q97R [1]: 59%
cleavage of multimeric rVWF [%]; Sample 13, 71 % Q97R [1]: 60%
cleavage of multimeric rVWF [%]; Sample 14, 59 % Q97R [1]: 55%
cleavage of multimeric rVWF [%]; Sample 15, 52 % Q97R [1]: 59%
cleavage of multimeric rVWF [%]; Sample 16, 57 % Q97R [1]: 66%
cleavage of multimeric rVWF [%]; Sample 17, 61 % Q97R [1]: 58%
cleavage of multimeric rVWF [%]; Sample 18, 63 % Q97R [1]: 55%
cleavage of multimeric rVWF [%]; Sample 19, 54 % Q97R [1]: 78%
cleavage of multimeric rVWF [%]; Sample 20, 64 % Q97R [1]: 78%
cleavage of multimeric rVWF [%]; Sample 21, 64 % Q97R [1]: 75%
cleavage of multimeric rVWF [%]; Sample 22, 66 % Q97R [1]: 65%
cleavage of multimeric rVWF [%]; Sample 23, 61 % Q97R [1]: 66%
cleavage of multimeric rVWF [%]; Sample 24, 62 % Q97R [1]: 63%
cleavage of multimeric rVWF [%]; Sample 25, 61 % Q97R [1]: 63%
cleavage of multimeric rVWF [%]; Sample 26, 61 % Q97R [1]: 67%
cleavage of multimeric rVWF [%]; Sample 27, 59 % Q97R [1]: 67%
cleavage of multimeric rVWF [%]; Sample 28, 60 % Q97R [1]: 67%
cleavage of multimeric rVWF [%]; Sample 29, 55 % Q97R [1]: 68%
cleavage of multimeric rVWF [%]; Sample 30, 60 % Q97R [1]: 67%
cleavage of multimeric rVWF [%]; Sample 31, 64 % Q97R [1]: 71%
cleavage of multimeric rVWF [%]; Sample 32, 60 % Q97R [1]: 62%
cleavage of multimeric rVWF [%]; Sample 33, 65 % Q97R [1]: 78%
cleavage of multimeric rVWF [%]; Sample 34, 61 % Q97R [1]: 65%
cleavage of multimeric rVWF [%]; Sample 35, 72 % Q97R [1]: 66%
IU VWF RCo/ml left; ADAMTS13 0.1 U/ml, 0 h (IU VWF RCo/ml) [2]: 0.72
IU VWF RCo/ml left; ADAMTS13 0.1 U/ml, 15 seconds (IU VWF RCo/ml) [2]: 0.33
IU VWF RCo/ml left; ADAMTS13 0.1 U/ml, 30 seconds (IU VWF RCo/ml) [2]: 0.34
IU VWF RCo/ml left; ADAMTS13 0.1 U/ml, 1 minute (IU VWF RCo/ml) [2]: 0.3
IU VWF RCo/ml left; ADAMTS13 0.1 U/ml, 2 minutes (IU VWF RCo/ml) [2]: 0.24
IU VWF RCo/ml left; ADAMTS13 0.1 U/ml, 5 minutes (IU VWF RCo/ml) [2]: < 0.17
IU VWF RCo/ml left; ADAMTS13 0.5 U/ml, 0 h (IU VWF RCo/ml) [2]: 0.78
IU VWF RCo/ml left; ADAMTS13 0.5 U/ml, 15 seconds (IU VWF RCo/ml) [2]: < 0.17
IU VWF RCo/ml left; ADAMTS13 0.5 U/ml, 30 seconds (IU VWF RCo/ml) [2]: < 0.17
IU VWF RCo/ml left; ADAMTS13 0.5 U/ml, 1 minute (IU VWF RCo/ml) [2]: < 0.17
IU VWF RCo/ml left; ADAMTS13 0.5 U/ml, 2 minutes (IU VWF RCo/ml) [2]: < 0.17
IU VWF RCo/ml left; ADAMTS13 0.5 U/ml, 5 minutes (IU VWF RCo/ml) [2]: < 0.17
IU VWF RCo/ml left; ADAMTS13 1.0 U/ml, 0 h (IU VWF RCo/ml) [2]: 0.56
IU VWF RCo/ml left; ADAMTS13 1.0 U/ml, 15 seconds (IU VWF RCo/ml) [2]: < 0.17
IU VWF RCo/ml left; ADAMTS13 1.0 U/ml, 30 seconds (IU VWF RCo/ml) [2]: < 0.17
IU VWF RCo/ml left; ADAMTS13 1.0 U/ml, 1 minute (IU VWF RCo/ml) [2]: < 0.17
IU VWF RCo/ml left; ADAMTS13 1.0 U/ml, 2 minutes (IU VWF RCo/ml) [2]: < 0.17
IU VWF RCo/ml left; ADAMTS13 1.0 U/ml, 5 minutes (IU VWF RCo/ml) [2]: < 0.17
Molecule: rADAMTS13 batches composed of a mixture of wildtype rADAMTS13 and Q97R variant

B1: Q97R ADAMTS13 variant (protein)
chain: AAGGILHLELLVAVGPDVFQAHREDTERYVLTNLNIGAELLRDPSLGAQFRVHLVKMVILTEPEGAPNITANLTSSLLSVCGWSQTINPEDDTDPGHADLVLYITRFDLELPDGNRQVRGVTQLGGACSPTWSCLITEDTGFDLGVTIAHEIGHSFGLEHDGAPGSGCGPSGHVMASDGAAPRAGLAWSPCSRRQLLSLLSAGRARCVWDPPRPQPGSAGHPPDAQPGLYYSANEQCRVAFGPKAVACTFAREHLDMCQALSCHTDPLDQSSCSRLLVPLLDGTECGVEKWCSKGRCRSLVELTPIAAVHGRWSSWGPRSPCSRSCGGGVVTRRRQCNNPRPAFGGRACVGADLQAEMCNTQACEKTQLEFMSQQCARTDGQPLRSSPGGASFYHWGAAVPHSQGDALCRHMCRAIGESFIMKRGDSFLDGTRCMPSGPREDGTLSLCVSGSCRTFGCDGRMDSQQVWDRCQVCGGDNSTCSPRKGSFTAGRAREYVTFLTVTPNLTSVYIANHRPLFTHLAVRIGGRYVVAGKMSISPNTTYPSLLEDGRVEYRVALTEDRLPRLEEIRIWGPLQEDADIQVYRRYGEEYGNLTRPDITFTYFQPKPRQAWVWAAVRGPCSVSCGAGLRWVNYSCLDQARKELVETVQCQGSQQPPAWPEACVLEPCPPYWAVGDFGPCSASCGGGLRERPVRCVEAQGSLLKTLPPARCRAGAQQPAVALETCNPQPCPARWEVSEPSSCTSAGGAGLALENETCVPGADGLEAPVTEGPGSVDEKLPAPEPCVGMSCPPGWGHLDATSAGEKAPSPWGSIRTGAQAAHVWTPAAGSCSVSCGRGLMELRFLCMDSALRVPVQEELCGLASKPGSRREVCQAVPCPARWQYKLAACSVSCGRGVVRRILYCARAHGEDDGEEILLDTQCQGLPRPEPQEACSLEPCPPRWKVMSLGPCSASCGLGTARRSVACVQLDQGQDVEVDEAACAALVRPEASVPCLIADCTYRWHVGTWMECSVSCGDGIQRRRDTCLGPQAQAPVPADFCQHLPKPVTVRGCWAGPCVGQGTPSLVPHEEAAAPGRTTATPAGASLEWSQARGLLFSPAPQPRRLLPGPQENSVQSSACGRQHLEPTGTIDMRGPGQADCAVAIGRPLGEVVTLRVLESSLNCSAGDMLLLWGRLTWRKMCRKLLDMTFSSKTNTLVVRQRCGRPGGGVLLRYGSQLAPETFYRECDMQLFGPWGEIVSPSLSPATSNAGGCRLFINVAPHARIAIHALATNMGAGTEGANASYILIRDTHSLRTTAFHGQQVLYWESESSQAEMEFSEGFLKAQASLRGQYWTLQSWVPEMQDPQSWKGKEGT
Specific rADAMTS13 activity (activity per total protein by UV) [3]: 1740 IU/mg
rADAMTS13 Activity (FRETS VWF73) [3]: 1370 IU/mL
specific activity (FRETS U/mg UV protein) against share of Q97R, regression [3]: suggesting that the Q^97R rADAMTS13 variant has similar activity to that of wildtype ADAMTS13
Degradation of full-length rVWF under denaturing conditions (VWF multimer analysis) [4]: Comparable
